Positions count from the first letter of the chain named. Names may count otherwise. “Also recorded” adds a separate entry of the source.
B1: TAT-GIV-CT-WT: Recombinant cell-permeable fusion of TAT-PTD, His and HA tags, linker and human GIV C-terminus (aa 1660-1870), wild type; SEQ ID NO: 2 (protein)
chain: MRGSHHHHHHGMASMTGGQQMGRDLYDDDDKDRWGSKLGYGRKKRRQRRRGGSTMSGYPYDVPDYAGSMGGSGHSGETLESRHHKIKTGSPGSEVVTLQQFLEESNKLTSVQIKSSSQENLLDEVMKSLSVSSDFLGKDKPVSCGLARSVSGKTPGDFYDRRTTKPEFLRPGPRKTEDTYFISSAGKPTPGTQGKIKLVKESSLSRQSKDSNPYATLPRASSVISTAEGTTRRTSIHDFLTKDSRLPISVDSPPAAADSNTTAASNVDKVQESRNSKSRSREQQSS
B2: TAT-GIV-CT-FA: GEF-deficient F1685A mutant of the TAT-GIV-CT peptide, dominant-negative; SEQ ID NO: 3 (protein)
chain: B1 chain with F101A

What was measured:
[1] = test system: EGFR autophosphorylation and Akt signaling; experiment: EGF signaling in TAT-transduced HeLa cells by immunoblotting; type: cell-based; conditions: 50 nM EGF; for EGFR autophosphorylation: pY1068
Procedure: For immunoblotting, protein samples were separated by SDS/PAGE and transferred to PVDF membranes (Millipore). Membranes were blocked with PBS supplemented with 5% nonfat milk (or with 5% BSA when probing for phosphorylated proteins) before incubation with primary antibodies. Infrared imaging with two-color detection and quantification were performed using a Li-Cor Odyssey imaging system (50, 52, 53). Primary antibodies were diluted as follows: anti-His 1:1,000; anti-GIV/Girdin (T-13) 1:500; antiphospho EGFR 1068 (1:1000); anti-phospho-Akt (Ser473) 1:250; anti-Akt 1:500; anti-Gαi3 1:333; anti-pan-GP 1:250; anti-α tubulin 1: 2,000. All Odyssey images were processed using Image J software (NIH) and assembled for presentation using Photoshop and Illustrator software (Adobe).
For TAT-protein transduction, cells were incubated with 400-800 nM of the TAT-proteins for 30 min at 37° C. prior to three washes with PBS and addition of fresh growth media. For analysis of EGF signaling, subconfluent monolayers of HeLa cells were treated with TAT proteins for 30 min, washed with PBS, and subsequently stimulated with EGF (50 nM) at 4 h after TAT transduction. For scratch-wound assays, HeLa monolayers were treated with TAT proteins before and at 12 h after wounding. For cancer cell invasion assays, highly invasive MDA MB 231 breast cancer cells were plated in 6-well dishes, treated with TAT-peptides for 30 min and subsequently lifted and placed in transwell chamber in the presence of serum-free media. For L×2 myofibroblast activation assays, cells were first treated with TAT-proteins for 30 min, starved in serum-free media, and subsequently treated with 1.5 ng/ml TGF-β for 24 h. TAT-protein transduction was repeated every 8 h during the course of TGFβ stimulation (total 3 treatments). For assays involving insulin stimulation of TAT-treated L6 myotubes, such stimulation was carried out 90 min after transduction. In each case, whole cell lysates prepared from cells in duplicate wells were analyzed for signaling pathways and TAT-protein uptake by immunoblotting.

GST-Gαi3 (GDP loaded) = target: T1, GST-Gαi3 (GDP loaded) (Rattus norvegicus, UniProt P08753); experiment: In vitro GST pulldown of TAT-GIV-CT proteins with GST-Gαi3; type: binding; conditions: 3 μg TAT protein, 4 h at 4° C., immunoblot with His mAb
T1 construct: made in house; host or cells: E. coli BL21(DE3)
Procedure: Purified GST-Gαi3 or GST alone (5 μg) were immobilized on glutathione-Sepharose beads and incubated with binding buffer [50 mM Tris-HCl (pH 7.4), 100 mM NaCl, 0.4% (vol:vol) Nonidet P-40, 10 mM MgCl2, 5 mM EDTA, 30 μM GDP, 2 mM DTT, protease inhibitor mixture] for 90 min at room temperature as described (49, 50, 52, 54). TAT-GIV-CT (amino acids 1,660-1,870) proteins (3 μg) were added to each tube, and binding reactions were carried out for 4 h at 4° C. with constant tumbling. Beads were washed (four times) with 1 mL of wash buffer [4.3 mM Na2HPO4, 1.4 mM KH2PO4 (pH 7.4), 137 mM NaCl, 2.7 mM KCl, 0.1% (vol:vol) Tween 20, 10 mM MgCl2, 5 mM EDTA, 30 μM GDP, 2 mM DTT] and reduced in Laemmli's sample buffer at 37° C. Immunoblot analysis was performed by infrared imaging following the manufacturer's protocols using an Odyssey imaging system (Li-Cor Biosciences).

MDA MB231 cells = experiment: Transwell tumor cell invasion assay through basement membrane extract; type: cell-based; conditions: compared to TAT-control peptides; 50 nM EGF
Procedure: Briefly, after a serum starvation overnight, MDA MB231 cells were first transduced with TAT peptides for 30 min as above. Transduced cells were trypsinized, counted, and placed in a Corning transwell permeable support coated with Cultrex Basement Membrane Extract (7×10^4 cells per well). Media without FBS but containing EGF ligand (50 nM) was placed within the bottom chamber of each well to trigger directional 3D invasion. As done in the 2D migration assays, transduction with TAT peptides was repeated one more time ˜10-12 h into the assay (total of two times). At 22-24 h, a Q-tip was used to meticulously remove all cells from the surface of the permeable membrane facing the upper chamber. […] To quantify cell invasion (expressed as number of invasive cells/high power field) ˜10-12 random fields per membrane insert per condition were analyzed for number of crystal violet stained cells. […]
Invasion assays were performed using Corning® Transwell plates according to the manufacturer's protocol. Transduced cells were trypsinized, counted and placed in a Corning transwell permeable support coated with Cultrex® Basement Membrane Extract (7×10^4 cells/well). […] Cell invasion (expressed as number of invasive cells/high power field) was quantified by analyzing ˜10-12 random fields/membrane insert/condition for number of crystal violet stained cells.

HeLa cells = experiment: Scratch-wound 2D cell migration assay; type: cell-based; conditions: lysates 6 h post-wounding

T1 sequence (P08753 whole entry): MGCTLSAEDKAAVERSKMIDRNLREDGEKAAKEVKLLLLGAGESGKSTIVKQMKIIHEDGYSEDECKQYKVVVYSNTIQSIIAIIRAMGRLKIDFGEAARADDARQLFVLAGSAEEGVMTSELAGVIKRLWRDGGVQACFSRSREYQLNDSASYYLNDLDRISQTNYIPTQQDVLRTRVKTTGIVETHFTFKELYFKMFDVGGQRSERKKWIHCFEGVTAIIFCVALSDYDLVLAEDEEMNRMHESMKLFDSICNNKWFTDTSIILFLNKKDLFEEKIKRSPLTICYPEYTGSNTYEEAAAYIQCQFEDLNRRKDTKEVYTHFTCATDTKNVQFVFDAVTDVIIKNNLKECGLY

| Binding to GDP-loaded GST-Gαi3 in pulldown (GST-Gαi3 (GDP loaded); listed as FA) | Molecule | Akt signaling (phosphorylation at Ser 473) [1] | EGFR autophosphorylation [1] | Binding to GDP-loaded GST-Gαi3 in pulldown (GST-Gαi3 (GDP loaded)) | Binding to GDP-loaded GST-Gαi3 in pulldown (GST-Gαi3 (GDP loaded); listed as WT) | invasion through basement membrane matrix in response to EGF gradient (MDA MB231 cells) | Akt activation during 2D cell migration (HeLa cells) | EGFR autophosphorylation during 2D cell migration (HeLa cells) | Akt activation during 2D cell migration (HeLa cells; listed as WT) | EGFR autophosphorylation during 2D cell migration (HeLa cells; listed as WT) |
| --- | --- | --- | --- | --- | --- | --- | --- | --- | --- | --- |
|  | B1 | enhances | enhances | bound | binds | significantly enhanced | enhances | enhances | enhanced | enhanced |
| not | B2 | inhibited; also recorded: suppresses | inhibited; also recorded: suppresses | did not bind |  | virtually abolished | not | not |  |  |

Source: patent US10653749B2, “Targeting GIV-GEF-GI signaling for treating diverse diseases” (The Regents of the University of California, priority 2015, dated 2020)
